# Measured values from article PMC6400186, “Structure of mammalian plasma fetuin-B and its mechanism of selective metallopeptidase inhibition” (IUCrJ, 2019).
# T1: human meprin β (human, UniProt Q16820 62-652)
# T1 sequence (looked up): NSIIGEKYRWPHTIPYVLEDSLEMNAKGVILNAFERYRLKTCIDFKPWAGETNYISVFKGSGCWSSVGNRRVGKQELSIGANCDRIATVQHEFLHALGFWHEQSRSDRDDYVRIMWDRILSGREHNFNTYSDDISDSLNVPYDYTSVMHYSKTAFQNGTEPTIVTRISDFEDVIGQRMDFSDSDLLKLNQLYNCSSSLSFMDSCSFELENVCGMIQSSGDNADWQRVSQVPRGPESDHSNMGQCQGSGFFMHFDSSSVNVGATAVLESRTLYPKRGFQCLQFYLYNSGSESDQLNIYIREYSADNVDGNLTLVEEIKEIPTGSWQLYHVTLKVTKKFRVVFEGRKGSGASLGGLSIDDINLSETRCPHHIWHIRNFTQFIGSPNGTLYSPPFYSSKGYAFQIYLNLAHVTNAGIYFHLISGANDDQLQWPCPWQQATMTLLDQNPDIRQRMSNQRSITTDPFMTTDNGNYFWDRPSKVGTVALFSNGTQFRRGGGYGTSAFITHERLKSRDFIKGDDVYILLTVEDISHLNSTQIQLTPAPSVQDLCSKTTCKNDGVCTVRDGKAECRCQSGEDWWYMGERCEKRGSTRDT
# T2: mouse ovastacin (mouse, UniProt Q6HA09 85-435)
# T2 sequence (looked up): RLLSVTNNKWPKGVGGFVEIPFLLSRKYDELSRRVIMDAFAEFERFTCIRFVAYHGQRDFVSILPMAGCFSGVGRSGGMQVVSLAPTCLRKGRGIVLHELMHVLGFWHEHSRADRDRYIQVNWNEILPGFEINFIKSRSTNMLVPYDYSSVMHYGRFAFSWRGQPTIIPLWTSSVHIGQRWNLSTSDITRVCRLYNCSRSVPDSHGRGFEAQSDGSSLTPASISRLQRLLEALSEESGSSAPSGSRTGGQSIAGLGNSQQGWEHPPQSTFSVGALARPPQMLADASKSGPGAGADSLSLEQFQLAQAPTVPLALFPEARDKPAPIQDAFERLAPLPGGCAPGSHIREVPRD
# B1: chimeric mutant mFBABA (other, mouse, UniProt P29699 19-136, looked up)
# chain: APQGTGLGFRELACDDPEAEQVALLAVDYLNNHLLQGFKQVLNQIDKVKVWSRRPFGVVYEMEVDTLETTCHALDPTPLANCSVRQLTEHAVEGDCDFHILKQDGQFRVMHTQCHSTPVSKRKTHTTCPDCPSPIDLSNPSALEAATESLAKFNSKSPSKKYELVKVTKAMNQWVSGPAYYVEYLIKEAPCTKSQASCSLQHSDSEPVGICQGSTVQSSLRHVPLIQPVEKSVTVTCEFFESQPQPANANAVGPVPTANAALPADPPASVVVGPVVVPRGLSDHRTYHDLRHAFSPVASVESASGETLHSPKVGQPGAAGPVSPMCPGRIRHFKI
# notes: mouse fetuin-A CY1 domain, UniProt P29699, residues A19-P136; mouse fetuin-B CY2 domain with linker, UniProt Q9QXC1, residues V145-Q269; mouse fetuin-A CTR domain, UniProt P29699, residues P254-I345; also called chimera of mouse fetuin-B with CY1 and CTR from mouse fetuin-A; source: adenovirus-infected COS-7 cells, purified (Ni-NTA)
# B2: mouse fetuin-B (natural protein, UniProt Q9QXC1 19-388, looked up)
# chain: RSPPAPPLPQRPLSPLHPLGCNDSEVLAVAGFALQNINRDQKDGYMLSLNRVHDVREHYQEDMGSLFYLTLDVLETDCHVLSRKAQKDCKPRMFYESVYGQCKAMFHINKPRRVLYLPAYNCTLRPVSKRKTHTTCPDCPSPIDLSNPSALEAATESLAKFNSKSPSKKYELVKVTKAMNQWVSGPAYYVEYLIKEAPCTKSQASCSLQHSDSEPVGICQGSTVQSSLRHVPLIQPVEKSVTVTCEFFESQAQVPGDENPAVTQGPQKLPQKNTAPTSSPSVTAPRGSIQHLPELDDEKPEESKGGSPEEAFPVQLDLTTNPQGDTLDVSFLYLEPGDKKLVVLPFPGKEQRSAECPGPEKENNPLVLPP
# modifications: N-glycans at N40 and N139
# notes: mouse fetuin-B, UniProt Q9QXC1; residues R29-P388 (molecule B) and Q28-P388 (molecule D) are modelled in the complex; also called mFB; murine fetuin-B; source: baculovirus-transduced High Five cells, purified (Ni-NTA); not shown: His6, C-terminal, kept
# B3: mouse fetuin-B P155A (natural protein, UniProt Q9QXC1 19-388, looked up)
# chain: RSPPAPPLPQRPLSPLHPLGCNDSEVLAVAGFALQNINRDQKDGYMLSLNRVHDVREHYQEDMGSLFYLTLDVLETDCHVLSRKAQKDCKPRMFYESVYGQCKAMFHINKPRRVLYLPAYNCTLRPVSKRKTHTTCADCPSPIDLSNPSALEAATESLAKFNSKSPSKKYELVKVTKAMNQWVSGPAYYVEYLIKEAPCTKSQASCSLQHSDSEPVGICQGSTVQSSLRHVPLIQPVEKSVTVTCEFFESQAQVPGDENPAVTQGPQKLPQKNTAPTSSPSVTAPRGSIQHLPELDDEKPEESKGGSPEEAFPVQLDLTTNPQGDTLDVSFLYLEPGDKKLVVLPFPGKEQRSAECPGPEKENNPLVLPP
# notes: also called mFB_(P155A); source: ExpiCHO-S cells, purified (Ni-NTA)
# B4: mouse fetuin-B P155A+D156A (natural protein, UniProt Q9QXC1 19-388, looked up)
# chain: RSPPAPPLPQRPLSPLHPLGCNDSEVLAVAGFALQNINRDQKDGYMLSLNRVHDVREHYQEDMGSLFYLTLDVLETDCHVLSRKAQKDCKPRMFYESVYGQCKAMFHINKPRRVLYLPAYNCTLRPVSKRKTHTTCAACPSPIDLSNPSALEAATESLAKFNSKSPSKKYELVKVTKAMNQWVSGPAYYVEYLIKEAPCTKSQASCSLQHSDSEPVGICQGSTVQSSLRHVPLIQPVEKSVTVTCEFFESQAQVPGDENPAVTQGPQKLPQKNTAPTSSPSVTAPRGSIQHLPELDDEKPEESKGGSPEEAFPVQLDLTTNPQGDTLDVSFLYLEPGDKKLVVLPFPGKEQRSAECPGPEKENNPLVLPP
# notes: also called mFB_(P155A,D156A); double mutant; source: ExpiCHO-S cells, purified (Ni-NTA)
# B5: mouse fetuin-B D156A (natural protein, UniProt Q9QXC1 19-388, looked up)
# chain: RSPPAPPLPQRPLSPLHPLGCNDSEVLAVAGFALQNINRDQKDGYMLSLNRVHDVREHYQEDMGSLFYLTLDVLETDCHVLSRKAQKDCKPRMFYESVYGQCKAMFHINKPRRVLYLPAYNCTLRPVSKRKTHTTCPACPSPIDLSNPSALEAATESLAKFNSKSPSKKYELVKVTKAMNQWVSGPAYYVEYLIKEAPCTKSQASCSLQHSDSEPVGICQGSTVQSSLRHVPLIQPVEKSVTVTCEFFESQAQVPGDENPAVTQGPQKLPQKNTAPTSSPSVTAPRGSIQHLPELDDEKPEESKGGSPEEAFPVQLDLTTNPQGDTLDVSFLYLEPGDKKLVVLPFPGKEQRSAECPGPEKENNPLVLPP
# notes: also called mFB_(D156A); source: ExpiCHO-S cells, purified (Ni-NTA)
# Experiments:
# Experiment in all cases: enzyme inhibition assay (fluorogenic substrate), Ki by Morrison's equation; fetuin-B variant titrated against enzyme; 37°C, 150 mM sodium chloride, 50 mM Tris-HCl pH 7.4, 0.01% Brij 35, triplicate; enzyme and substrate 1.0 nM and 195 µM for astacin, 0.5 nM and 26 µM for meprin β, 0.7 nM and 26 µM for ovastacin
# Conditions in all cases: both partners purified
# human meprin β = target: T1, human meprin β
# crayfish astacin = target: T3, crayfish astacin (European freshwater crayfish Astacus …, UniProt P07584 50-251)
# T3 construct: astacin, Astacus astacus, UniProt P07584; Carries a catalytic zinc ion; also called archetypal astacin; source: purified from the digestive fluid of the European freshwater crayfish Astacus astacus L
# T3 sequence (P07584 50-251): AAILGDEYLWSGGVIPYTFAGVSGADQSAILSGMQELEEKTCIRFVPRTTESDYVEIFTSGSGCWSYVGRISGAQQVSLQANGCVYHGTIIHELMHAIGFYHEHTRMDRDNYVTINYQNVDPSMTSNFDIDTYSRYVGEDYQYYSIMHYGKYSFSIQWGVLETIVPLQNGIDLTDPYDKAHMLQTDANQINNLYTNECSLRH
# mouse ovastacin = target: T2, mouse ovastacin
binder,measurement,setting,value
B1,loss of inhibitory potency (change of Ki) against wild-type mouse fetuin-B,human meprin β,> 4 orders of magnitude
same,loss of inhibitory potency (change of Ki) against wild-type mouse fetuin-B,crayfish astacin,> 3 orders of magnitude
same,loss of inhibitory potency (change of Ki) against wild-type mouse fetuin-B,mouse ovastacin,> 4 orders of magnitude
B2,Ki,human meprin β,0.081 nM
same,Ki,crayfish astacin,0.1 nM
same,Ki,mouse ovastacin,0.046 nM
B3,loss of inhibitory potency (change of Ki) against wild-type mouse fetuin-B,human meprin β,~1 orders of magnitude
same,loss of inhibitory potency (change of Ki) against wild-type mouse fetuin-B,crayfish astacin,~1 orders of magnitude
same,loss of inhibitory potency (change of Ki) against wild-type mouse fetuin-B,mouse ovastacin,~2 orders of magnitude
B4,loss of inhibitory potency (change of Ki) against wild-type mouse fetuin-B,human meprin β,4 orders of magnitude
same,loss of inhibitory potency (change of Ki) against wild-type mouse fetuin-B,crayfish astacin,2 orders of magnitude
same,loss of inhibitory potency (change of Ki) against wild-type mouse fetuin-B,mouse ovastacin,4 orders of magnitude
B5,loss of inhibitory potency (change of Ki) against wild-type mouse fetuin-B,human meprin β,~2 orders of magnitude
same,loss of inhibitory potency (change of Ki) against wild-type mouse fetuin-B,crayfish astacin,~2 orders of magnitude
same,loss of inhibitory potency (change of Ki) against wild-type mouse fetuin-B,mouse ovastacin,~4 orders of magnitude
